Test results as given in the supplement of paper PMC10899765.

Experiments:
Conditions in all cases: 20 nM; 72 h
MCF10A [1] = experiment: percent viability (nuclei count relative to siNT); higher = more viable cells
Method: (§1)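 After 72 h, cells were fixed and stained with Hoechst and anti-fibrillarin, and nucleoli per nucleus were counted with CellProfiler. Values are plate-adjusted percent effect for the one-nucleolus and 5+ nucleoli phenotypes, normalised to siNT (0%) and to the positive controls siNOL11 or siKIF11 (100%), as the mean of biological triplicates. Percent viability is the nuclei count relative to siNT.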

MCF10A [2] = experiment: 5+ nucleoli phenotype percent effect (relative to siNT 0% and siKIF11 100%); higher = more cells with five or more nucleoli
Method: as §1

MCF10A [3] = experiment: one-nucleolus phenotype percent effect (relative to siNT 0% and siNOL11 100%); higher = more cells with one nucleolus (ribosome biogenesis inhibition)
Method: as §1

Sequence | percent viability (MCF10A [1]) [%] | 5+ nucleoli phenotype percent effect (MCF10A [2]) [%] | one-nucleolus phenotype percent effect (MCF10A [3]) [%]
UUGGAGGGUGUGGAAGACAUC [hsa-miR-6515-5p] | 19 | -18.5 | 40.1
UUGGCCACAAUGGGUUAGAAC [hsa-miR-588] | 40.2 | 11.2 | 9.67
UUGGCCACCACACCUACCCCUU [hsa-miR-4701-5p] | 35.9 | 19.1 | 1.71
UUGGCCAUGGGGCUGCGCGG [hsa-miR-3187-3p] | 30.1 | 12.9 | -2.01
UUGGCUGGUCUCUGCUCCGCAG [hsa-miR-6842-3p] | 24.9 | -0.515 | 19.7
UUGGGACAUACUUAUGCUAAA [hsa-miR-1302] | 46.9 | -1.97 | -3.28
UUGGGAGGGAAGACAGCUGGAGA [hsa-miR-6780a-5p] | 13.4 | -30.2 | 55
UUGGGAUCAUUUUGCAUCCAUA [hsa-miR-450b-3p] | 42.8 | -2.46 | -1.71
UUGGGAUGGUAGGACCAGAGGGG [hsa-miR-6728-5p] | 50.3 | 24.3 | -15.8
UUGGGCCCAGGAGUAAACAGGAU [hsa-miR-6773-5p] | 40.3 | -4.65 | -0.04
UUGGGCUGGGCUGGGUUGGG [hsa-miR-1587] | 19.9 | -22.5 | 29.2
UUGGGGAAACGGCCGCUGAGUG [hsa-miR-2110] | 42.2 | -27.7 | 45.4
UUGGGGAUUGGGUCAGGCCAGU [hsa-miR-6857-5p] | 6.01 | -18 | 29.9
UUGGGGGUGAGGUUGGUGUCUGG [hsa-miR-6751-5p] | 7.37 | -13.1 | 13.4
UUGGGGUGGAGGGCCAAGGAGC [hsa-miR-6819-5p] | 3.49 | 2.57 | 37.8
UUGGGGUGGUCGGCCCUGGAG [hsa-miR-6737-5p] | 7.13 | -19.8 | 48.7
UUGGGGUUUGGGGUGCAGACAUUGC [hsa-miR-6855-5p] | 9.03 | -2.12 | 34.4
UUGGGUUUUCUCUUCAAUCCAG [hsa-miR-6839-3p] | 22.3 | -18.2 | 14.2
UUGGUGAGGACCCCAAGCUCGG [hsa-miR-7855-5p] | 7.91 | -27.6 | 73.9
UUGUACAUGGUAGGCUUUCAUU [hsa-miR-493-5p] | 81.7 | -9.79 | 3.68
UUGUCUCUUGUUCCUCACACAG [hsa-miR-6818-3p] | 57.7 | 16.4 | -11.1
UUGUCUGCUGAGUUUCC [hsa-miR-4288] | 31.9 | -15.9 | 27.6
UUGUGAAGAAAGAAAUUCUUA [hsa-miR-3611] | 53.1 | -15.1 | 12.5
UUGUGCUUGAUCUAACCAUGU [hsa-miR-218-5p] | 151 | 35.8 | -8.63

Sequence | percent viability (MCF10A [1]) [%] | 5+ nucleoli phenotype percent effect (MCF10A [2]) [%] | one-nucleolus phenotype percent effect (MCF10A [3]) [%]
UUGUGGAUCUCAAGGAUGUGCU [hsa-miR-4752] | 31.5 | -34.7 | 43.7
UUGUGGCUGGUCAUGAGGCUAA [hsa-miR-4474-3p] | 75.4 | 22.3 | 3.27
UUGUGGGGUUGGAGAGCUGGCUG [hsa-miR-6796-5p] | 17.2 | -31.5 | 45.3
UUGUGGGUGGGCAGAAGUCUGU [hsa-miR-6759-5p] | 21.7 | -37.5 | 49.5
UUGUGUCAAUAUGCGAUGAUGU [hsa-miR-592] | 69.9 | -26.9 | 31.3
UUGUGUGAGUACAGAGAGCAUC [hsa-miR-6818-5p] | 17.1 | -31.6 | 66.1
UUGUUCUCAAACUGGCUGUCAGA [hsa-miR-7156-5p] | 46.2 | 25.8 | -16.5
UUGUUCUUUGGUCUUUCAGCCA [hsa-miR-4677-5p] | 42.5 | -26.7 | 20.3
UUUAACAUGGGGGUACCUGCUG [hsa-miR-302c-5p] | 121 | 22.3 | -8.1
UUUAAGAAAACACCAUGGAGAU [hsa-miR-3658] | 148 | 18.1 | -25.1
UUUAAGCAGGAAAUAGAAUUUA [hsa-miR-4503] | 100 | -5.17 | -6.55
UUUAGAGACGGGGUCUUGCUCU [hsa-miR-1303] | 71.3 | 17.6 | -10.2
UUUAGAUUGAACAUGAAGUUAG [hsa-miR-4760-5p] | 83.5 | 46.3 | -20.8
UUUAGGAUAAGCUUGACUUUUG [hsa-miR-651] | 140 | 33.3 | -20.4
UUUAGUGUGAUAAUGGCGUUUGA [hsa-miR-3591-5p] | 39.6 | 0.56 | 11.5
UUUCAAGCCAGGGGGCGUUUUUC [hsa-miR-498] | 61 | 23.7 | -7.63
UUUCAGAUAACAGUAUUACAU [hsa-miR-3942-3p] | 58.8 | -0.677 | -15.3
UUUCCAUAGGUGAUGAGUCAC [hsa-miR-587] | 86.7 | 39.4 | -21.6
UUUCCCUUCAGAGCCUGGCUUU [hsa-miR-4755-5p] | 52.8 | 1.53 | 3.84
UUUCCCUUUCCAUCCUGGCAG [hsa-miR-5006-3p] | 31.7 | 18.5 | 4.84
UUUCCGGCUCGCGUGGGUGUGU [hsa-miR-1180] | 31.8 | -27.5 | 12.6
UUUCCUACCCUACCUGAAGACU [hsa-miR-3685] | 36.6 | -32.6 | 16.6
UUUCCUCAUAUUCAUUCAGGA [hsa-miR-670-3p] | 46.6 | -7.45 | 4.99
UUUCCUGUCCUCCAACCAGACC [hsa-miR-7152-5p] | 26.5 | -28.9 | 11.7
